Results as given in the RNAGym collection of RNA variant scans (doi:10.1093/molbev/msab373).

B1: Azoarcus group I ribozyme (parent)
chain: GUGCCUUGCGCCGGGAAACCACGCAAGGGAUGGUGUCAAAUUCGGCGAAACCUAAGCGCCCGCCCGGGCGUAUGGCAACGCCGAGCCAAGCUUCGGCGCCUGCGCCGAUGAAGGUGUAGAGACUAGACGGCACCCACCUAAGGCAAACGCUAUGGUGAAGGCAUAGUCCAGGGAGUGGCGAAAGUCACACAAACCGG

Variants of: B1
Assay: reverse-splicing fitness (ratio to wild type); higher = more active; in vitro selection; Mg2+ level not given
In short: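 An in vitro group I ribozyme library with randomized positions was T7-transcribed and gel-purified. In triplicate, 10 pmol RNA in EPPS pH 7.5 was reacted with 50 pmoles of a 30-nt RNA substrate for 1 h at 37 °C across several added MgCl2 levels (1–48 mM), then stopped with EDTA. Products were reverse transcribed from a substrate-complementary primer, PCR-amplified and sequenced (HiSeq 4000). Fitness is a variant's read proportion after selection over that before, normalised to wild type.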

**Q.** Which reverse-splicing fitness does the source give for C82U A120G A145C C169A U176C here?
**A.** 0.00742

**Q.** Which reverse-splicing fitness does the source give for C82U A120G A145C U176G here?
**A.** 0.00356

**Q.** With C82U A120G A145C U176A as the variant, how does the reverse-splicing fitness read?
**A.** 0.0109

**Q.** With C82U A120G A145C U176C as the variant, how does the reverse-splicing fitness read?
**A.** 0.0121

**Q.** For C82U A120G A145G C150U C169G U176C, which reverse-splicing fitness is on record?
**A.** 0.0207

**Q.** For C82U A120G A145G C150U C169G U176G, which reverse-splicing fitness is on record?
**A.** 0.00383

**Q.** For C82U A120G A145G C150U C169G U176A, which reverse-splicing fitness is on record?
**A.** 0.0132

**Q.** Which reverse-splicing fitness does the source give for C82U A120C A145G C150G C169U here?
**A.** 0.0108

**Q.** With C82U A120C A145G C150G C169A as the variant, how does the reverse-splicing fitness read?
**A.** 0.00952

**Q.** With C82U A120C A145G C150G C169G as the variant, how does the reverse-splicing fitness read?
**A.** 0.00749

**Q.** Which reverse-splicing fitness does the source give for C82U A120C U176A here?
**A.** 0.048

**Q.** For C82U A120C U176C, which reverse-splicing fitness is on record?
**A.** 0.0725

**Q.** With C82U A120C U176G as the variant, how does the reverse-splicing fitness read?
**A.** 0.00931

**Q.** For C82U A120C A145U C150A C169A, which reverse-splicing fitness is on record?
**A.** 0.00683

**Q.** Which reverse-splicing fitness does the source give for C82U A120C A145U C150A C169G here?
**A.** 0.00588

**Q.** For C82U A120C A145U C150A C169U, which reverse-splicing fitness is on record?
**A.** 0.00769

**Q.** With C82U A120C A145G C150A as the variant, how does the reverse-splicing fitness read?
**A.** 0.0315

**Q.** For C82U A120C A145G C150G, which reverse-splicing fitness is on record?
**A.** 0.0255

**Q.** With C82U A120C A145G C150U as the variant, how does the reverse-splicing fitness read?
**A.** 0.139

**Q.** Which reverse-splicing fitness does the source give for C82U A120G A145G C150U U176G here?
**A.** 0.00573

**Q.** Which reverse-splicing fitness does the source give for C82U A120G A145G C150U U176A here?
**A.** 0.00967

**Q.** For C82U A120G A145G C150U U176C, which reverse-splicing fitness is on record?
**A.** 0.019

**Q.** With C82U A120C A145G C150A C169U as the variant, how does the reverse-splicing fitness read?
**A.** 0.0116

**Q.** With C82U A120C A145G C150A C169G as the variant, how does the reverse-splicing fitness read?
**A.** 0.00829

**Q.** Which reverse-splicing fitness does the source give for C82U A120C A145G C150A C169A here?
**A.** 0.00919

**Q.** For C82U A120G A145U C150A, which reverse-splicing fitness is on record?
**A.** 0.00772

**Q.** For C82U A120G A145G C150G C169A, which reverse-splicing fitness is on record?
**A.** 0.00944

**Q.** For C82U A120G A145G C150G C169G, which reverse-splicing fitness is on record?
**A.** 0.00862

**Q.** With C82U A120G A145G C150G C169U as the variant, how does the reverse-splicing fitness read?
**A.** 0.0101

**Q.** For C82U A120C A145U C150U C169A U176C, which reverse-splicing fitness is on record?
**A.** 0.00582

**Q.** With C82U A120C A145U C150U C169A U176A as the variant, how does the reverse-splicing fitness read?
**A.** 0.0108

**Q.** With C82U A120C A145U C150U C169A U176G as the variant, how does the reverse-splicing fitness read?
**A.** 0.00423

**Q.** With C82U A120G A145C C150A C169U U176C as the variant, how does the reverse-splicing fitness read?
**A.** 0.00972

**Q.** With C82U A120G A145C C150A C169U U176A as the variant, how does the reverse-splicing fitness read?
**A.** 0.0218

**Q.** Which reverse-splicing fitness does the source give for C82U A120G A145C C150A C169U U176G here?
**A.** 0.0041

**Q.** For C82U A120C A145G C150G C169G U176C, which reverse-splicing fitness is on record?
**A.** 0.0118

**Q.** With C82U A120C A145G C150G C169G U176A as the variant, how does the reverse-splicing fitness read?
**A.** 0.00987

**Q.** With C82U A120C A145G C150G C169G U176G as the variant, how does the reverse-splicing fitness read?
**A.** 0.00504

**Q.** For C82U A120C C150G C169A U176C, which reverse-splicing fitness is on record?
**A.** 0.00991

**Q.** For C82U A120C C150G C169A U176A, which reverse-splicing fitness is on record?
**A.** 0.0104

**Q.** For C82U A120C C150G C169A U176G, which reverse-splicing fitness is on record?
**A.** 0.00606

**Q.** For C82U A120C A145U C150U U176C, which reverse-splicing fitness is on record?
**A.** 0.0537

**Q.** Which reverse-splicing fitness does the source give for C82U A120C A145U C150U U176A here?
**A.** 0.0328

**Q.** With C82U A120C A145U C150U U176G as the variant, how does the reverse-splicing fitness read?
**A.** 0.00795

**Q.** For C82U A120C C150U C169G U176C, which reverse-splicing fitness is on record?
**A.** 0.0117

**Q.** For C82U A120C C150U C169G U176G, which reverse-splicing fitness is on record?
**A.** 0.0038

**Q.** Which reverse-splicing fitness does the source give for C82U A120C C150U C169G U176A here?
**A.** 0.0126

**Q.** Which reverse-splicing fitness does the source give for C82U A120C A145G C169U here?
**A.** 0.0217

**Q.** With C82U A120C A145G C169G as the variant, how does the reverse-splicing fitness read?
**A.** 0.00711

**Q.** With C82U A120C A145G C169A as the variant, how does the reverse-splicing fitness read?
**A.** 0.00815

**Q.** Which reverse-splicing fitness does the source give for C82U A120G A145G C150A C169U U176C here?
**A.** 0.0166

**Q.** For C82U A120G A145G C150A C169U U176A, which reverse-splicing fitness is on record?
**A.** 0.0217

**Q.** For C82U A120G A145G C150A C169U U176G, which reverse-splicing fitness is on record?
**A.** 0.0051

**Q.** With C82U A120C C150G C169U as the variant, how does the reverse-splicing fitness read?
**A.** 0.00921

**Q.** For C82U A120C C150G C169G, which reverse-splicing fitness is on record?
**A.** 0.00683

**Q.** For C82U A120C C150G C169A, which reverse-splicing fitness is on record?
**A.** 0.00883

**Q.** With C82U A120G A145C C150A C169A U176A as the variant, how does the reverse-splicing fitness read?
**A.** 0.0124

**Q.** For C82U A120G A145C C150A C169A U176C, which reverse-splicing fitness is on record?
**A.** 0.0049

**Q.** With C82U A120G A145C C150A C169A U176G as the variant, how does the reverse-splicing fitness read?
**A.** 0.00326

**Q.** For C82U A120C A145U C169G, which reverse-splicing fitness is on record?
**A.** 0.00567

**Q.** For C82U A120C A145U C169U, which reverse-splicing fitness is on record?
**A.** 0.0193

**Q.** For C82U A120C A145U C169A, which reverse-splicing fitness is on record?
**A.** 0.00492

**Q.** For C82U A120C C150A C169U U176A, which reverse-splicing fitness is on record?
**A.** 0.0175

**Q.** For C82U A120C C150A C169U U176G, which reverse-splicing fitness is on record?
**A.** 0.00498

**Q.** With C82U A120C C150A C169U U176C as the variant, how does the reverse-splicing fitness read?
**A.** 0.0169

**Q.** Which reverse-splicing fitness does the source give for C82U A120C A145G U176A here?
**A.** 0.0488

**Q.** With C82U A120C A145G U176G as the variant, how does the reverse-splicing fitness read?
**A.** 0.00954

**Q.** With C82U A120C A145G U176C as the variant, how does the reverse-splicing fitness read?
**A.** 0.0715

**Q.** For C82U A120C A145G C169U U176G, which reverse-splicing fitness is on record?
**A.** 0.00344

**Q.** For C82U A120C A145G C169U U176C, which reverse-splicing fitness is on record?
**A.** 0.0171

**Q.** For C82U A120C A145G C169U U176A, which reverse-splicing fitness is on record?
**A.** 0.0177

**Q.** Which reverse-splicing fitness does the source give for C82U A120C A145U C150G U176G here?
**A.** 0.0036

**Q.** With C82U A120C A145U C150G U176A as the variant, how does the reverse-splicing fitness read?
**A.** 0.00757

**Q.** With C82U A120C A145U C150G U176C as the variant, how does the reverse-splicing fitness read?
**A.** 0.0134

**Q.** With C82U A120C C150G U176G as the variant, how does the reverse-splicing fitness read?
**A.** 0.00299

**Q.** Which reverse-splicing fitness does the source give for C82U A120C C150G U176A here?
**A.** 0.00635

**Q.** With C82U A120C C150G U176C as the variant, how does the reverse-splicing fitness read?
**A.** 0.0118

**Q.** With C82U A120G A145U C150A C169G U176A as the variant, how does the reverse-splicing fitness read?
**A.** 0.0114

**Q.** For C82U A120G A145U C150A C169G U176C, which reverse-splicing fitness is on record?
**A.** 0.0133

**Q.** For C82U A120G A145U C150A C169G U176G, which reverse-splicing fitness is on record?
**A.** 0.0037

**Q.** Which reverse-splicing fitness does the source give for C82U A120G A145C C150U C169G U176G here?
**A.** 0.0041

**Q.** Which reverse-splicing fitness does the source give for C82U A120G A145C C150U C169G U176A here?
**A.** 0.0197

**Q.** For C82U A120G A145C C150U C169G U176C, which reverse-splicing fitness is on record?
**A.** 0.0111

**Q.** For C82U A120G A145C C150G C169A U176A, which reverse-splicing fitness is on record?
**A.** 0.00717
